The results in this text go back to patent US20250270301A1 (GEN2 NEUROSCIENCE, published 2025).

Assay [1] addresses monomeric P301S 2N4R tau, pHrodo-labelled (human, UniProt P10636 1-758, pHrodo Red maleimide label). The experiment in a line: cell-based or functional assay.
Assay [2] has as its target aggregated (oligomeric) P301S 2N4R tau, pHrodo-labelled (human, UniProt P10636 1-758, pHrodo Red maleimide label). The experiment in a line: cell-based or functional assay.
Assay [3] has as its target T1, full length recombinant human 2N4R tau (human, UniProt P10636 1-758).
T1 construct: bought from rPeptide; pHrodo Red maleimide-labelled where it stands in uptake assays; also called tau1-441; full length tau
The experiment in a line: SPR SCK, IgG on Protein A, tau in flow. As to the method:
21.5 Assessment of antibody binding to tau (Biacore SCK analysis): Binding of anti-tau hIgG1 to full length recombinant 2N4R tau (Rpeptide; SEQ ID NO: 2) was assessed using the Biacore T200 (GE Healthcare, Chicago, IL, USA) running Biacore T200 Evaluation Software V2.0.1. hIgG1 were immobilised on a Protein A capture sensor chip in running buffer (HBS-EP+ buffer containing 1 mg/mL BSA) at 25° C., captured to ˜50 RU at 10 μL/min. For single-cycle kinetics experiments, recombinant 2N4R tau was flowed at concentrations ranging from 1.25 nM to 10 nM (2-fold dilutions) with an association time of 60 s and a dissociation time of 200 s. Curves were compared to a reference cell that was mock immobilized (no antibody present).

The target of assay [4] is T1, full length recombinant human 2N4R tau. Put plainly: SPR MCK, IgG on Protein A, tau in flow. The procedure:
Slight variations in RMAX are considered likely to be due to differences in ligand capture and not reflective of significant variation in antibody binding characteristics.
(§1) 22.2 Assessment of antibody binding to tau (Biacore MCK analysis): Binding of anti-tau hIgG1 to full length recombinant 2N4R tau (Rpeptide; SEQ ID NO: 2) was assessed using the Biacore T200 (GE Healthcare, Chicago, IL, USA) running Biacore T200 Evaluation Software V2.0.1. hIgG1 were immobilised on a Protein A capture sensor chip in running buffer (HBS-EP+ buffer containing 1 mg/mL BSA) at 25° C., captured to ˜50 RU at 10 L/min. For multi-cycle kinetics experiments, recombinant 2N4R tau was flowed at concentrations ranging from 0.39 nM to 12.5 nM in running buffer at 40 μL/min, with an association time of 60 s and a dissociation time of 200 s. Curves were compared to a reference cell that was mock immobilized (no antibody present).

Assay [5] shares this target. Put plainly: SPR SCK, IgG on Protein A, tau in flow. This is another data set of the same source.
Assay [6] has the same target. Put plainly: SPR MCK, IgG on Protein A, tau in flow at 100 µL/min.
Assay [7] deals with T2, Bovine serum albumin (bovine, UniProt P02769 25-607).
T2 construct: also called BSA
Put plainly: ELISA on 1% BSA, HEK supernatant, anti-human IgG-HRP, n=1. As to the method: FIG. 7. A panel of humanised anti-tau IgG bind to full length recombinant 2N4R tau in an ELISA format. Supernatants from HEK cells transiently transfected with each IgG clone were tested at 1:100 for binding to full length recombinant 2N4R tau (solid bars). […] Binding of anti-tau hIgG1 was detected using an HRP-conjugated anti-human secondary antibody and data are shown from a representative experiment (n=1 replicate).
Antigen was removed from wells and the plates were then blocked for 1 hour at RT with 5% dried milk in 1×TBS. Blocking solution was removed, HEK293 cell supernatant (1:100 in 1% BSA/1×TBS) was added to relevant wells, and plates were incubated for 1 hour at RT with gentle shaking. Plates were then washed four times with TBS/0.1% Tween (TBST). Goat anti-human IgG-HRP antibody (Thermo Fisher Scientific, Waltham, MA, USA), diluted 1:2000 in 5% milk/TBS, was added to each well and plates were incubated for 1 hour at RT with gentle shaking before being washed four times with TBST. 3,3′,5,5′-tetramethylbenzidine (TMB) ELISA solution was added to each well and plates were incubated for 15 mins at RT. An equal volume of 1 M sulfuric acid was added to each well and OD was measured at 450 nm.
(ELISA stands for enzyme-linked immunosorbent assay.)

For assay [8], the target named is T2, Bovine serum albumin. The description is as above. This is another data set of the same source.
For assay [9], the target named is T1, full length recombinant human 2N4R tau. Put plainly: SPR MCK, IgG on Protein A, tau in flow. The procedure: Anti-tau IgGs bind to full length 2N4R tau (SEQ ID NO: 2) with high affinity. […] It is predicted that the binding affinity of these antibodies would be equivalent to any tau species containing the epitope corresponding to amino acids 369-381 of 2N4R tau (SEQ ID NO: 1), if this sequence is accessible.
as §1, with “19.2” for “22.2”, “tau:” for “tau (Biacore MCK analysis):”, “μL/min.” for “L/min.”, “experiments (clone #66), recombinant 2N4R tau was flowed at concentrations ranging from 0.39 nM to 50 nM in running buffer at 40 μL/min, with an association time of 150 s and a dissociation time of 250 s. Optimised conditions for multiple-cycle kinetics experiments were applied to clone #44:” for “experiments,”, “(2-fold dilutions)” for “in running buffer at 40 μL/min,”, “s (cropped to 65 s to improve analysis fit).” for “s.”
The source holds these as a separate data set.

Read-outs that look alike come from different tables or passages of the source.

T1 sequence (P10636 other isoform, or with tags, fused parts or gaps limits assumed): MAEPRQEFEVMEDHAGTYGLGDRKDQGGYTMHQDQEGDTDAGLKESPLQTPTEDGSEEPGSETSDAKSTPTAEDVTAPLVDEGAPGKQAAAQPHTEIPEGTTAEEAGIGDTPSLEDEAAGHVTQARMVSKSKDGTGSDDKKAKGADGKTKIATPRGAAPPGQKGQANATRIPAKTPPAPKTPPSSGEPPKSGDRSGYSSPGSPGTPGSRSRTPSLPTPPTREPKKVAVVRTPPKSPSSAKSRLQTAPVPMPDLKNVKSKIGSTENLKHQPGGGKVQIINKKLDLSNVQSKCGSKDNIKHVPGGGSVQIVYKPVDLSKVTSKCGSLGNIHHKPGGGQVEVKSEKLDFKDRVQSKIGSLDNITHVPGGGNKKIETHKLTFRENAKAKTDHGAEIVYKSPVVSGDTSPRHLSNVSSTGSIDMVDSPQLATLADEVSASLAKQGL
Sequence of monomeric P301S 2N4R tau, pHrodo-labelled (P10636 other isoform, or with tags, fused parts or gaps P301S P301S): as the sequence (P10636 other isoform, or with tags, fused parts or gaps limits assumed) above, with P301S counted along it
Sequence of aggregated (oligomeric) P301S 2N4R tau, pHrodo-labelled (P10636 other isoform, or with tags, fused parts or gaps P301S P301S): as the sequence (P10636 other isoform, or with tags, fused parts or gaps limits assumed) above, with P301S counted along it
T2 sequence (P02769 25-607 limits assumed): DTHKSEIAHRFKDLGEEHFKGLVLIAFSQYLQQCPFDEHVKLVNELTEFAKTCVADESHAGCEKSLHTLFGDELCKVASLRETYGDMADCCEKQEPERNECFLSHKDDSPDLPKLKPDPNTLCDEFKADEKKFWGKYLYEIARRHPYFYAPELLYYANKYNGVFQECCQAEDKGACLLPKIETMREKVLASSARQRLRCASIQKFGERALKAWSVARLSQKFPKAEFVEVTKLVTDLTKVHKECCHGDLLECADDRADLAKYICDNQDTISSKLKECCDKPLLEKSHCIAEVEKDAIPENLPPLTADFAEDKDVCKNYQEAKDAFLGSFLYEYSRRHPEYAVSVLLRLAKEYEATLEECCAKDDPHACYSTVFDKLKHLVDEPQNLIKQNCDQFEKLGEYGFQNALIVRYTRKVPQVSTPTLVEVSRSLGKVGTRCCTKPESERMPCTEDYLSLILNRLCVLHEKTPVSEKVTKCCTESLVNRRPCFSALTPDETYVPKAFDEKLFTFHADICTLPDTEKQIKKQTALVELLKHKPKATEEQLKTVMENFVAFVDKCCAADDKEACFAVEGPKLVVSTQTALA

B1: #44_VH4VK4 humanised hIgG1 (antibody, V domains shown)
VH: QVQLQESGPGLVKPSETLSLTCTVSGIDLSSYAMAWVRQAPGKGLEWIGCIDRRGGTFYASWVKGRFTISKDTSKTTVDLQMTSLTAEDTATYFCARDSGAFDPWGQGTLVTVSS
VL: DIQMTQSPSSLSASVGDRVTITCQASQSVYDNYLAWYQQKPGQPPKLLIHAASNLASGVPSRFSGSGSGTEFTLTISSLQPDDFATYYCLGEFSCTTTDCNVFGGGTKVEIK
notes: also called VH4Vκ4; pVH/pVL
Turning to B1, in assay [1], the “increase of monomeric tau uptake into human iPSC-derived microglia” value was found to be 59.4%, the “inhibition of monomeric tau uptake into human astrocytes” value turned out to be 52.3% and the “inhibition of monomeric tau uptake into human iPSC-derived astrocytes” value was determined as 94.1%. In addition, in [2], the “increase of aggregated tau uptake into human iPSC-derived microglia” value was determined as 115%, the “inhibition of aggregated tau uptake into human astrocytes” value came to 41.3% and the “inhibition of aggregated tau uptake into human iPSC-derived astrocytes” value worked out at 61.9%. Also, in assay [3], the dissociation constant Kd (usually the equilibrium constant for the complex coming apart) was determined as 8.12 nM; the “Relative KD (to VH0VK0)” value came out at 2.12; the koff (as a rule, the first-order rate constant of dissociation) was 0.0294 s⁻¹; the kon (commonly the rate constant with which the complex forms) was found to be 3.61e+06 M⁻¹ s⁻¹. Further, in assay [4], the Kd is 5.84 nM, the “Relative KD (to VH0VK0)” value turned out to be 1.8, the koff was 0.0316 s⁻¹ and the kon was found to be 5.41e+06 M⁻¹ s⁻¹. In assay [5], the “Fold change (KD, to pVH/pVL)” value is 1; the dissociation constant (Kd) came to 6.58 nM; the koff was determined as 0.012 s⁻¹; the kon turned out to be 1.82e+06 M⁻¹ s⁻¹. Besides, in [6], the “Fold improvement (KD, to pVH/pVL)” value was 1; the Kd was 7.76 nM; the koff was 0.0147 s⁻¹; the kon was found to be 1.89e+06 M⁻¹ s⁻¹. In addition, in the assay with Bovine serum albumin [7], the binding result is on record as “no binding (tested: supernatant 1:100)”.

B2: #44_VH4VK4_H01/pVL (antibody, V domains shown)
VH: QVQLQESGPGLVKPSETLSLTCTVSGIDLSSYAMAWVRQAPGKGLEWIGCIDRRGGTFYASWVKGRFTISKDTSKTTVDLQMTSLTAEDTATYFCARDVGSFDVWGQGTLVTVSS
VL: DIQMTQSPSSLSASVGDRVTITCQASQSVYDNYLAWYQQKPGQPPKLLIHAASNLASGVPSRFSGSGSGTEFTLTISSLQPDDFATYYCLGEFSCTTTDCNVFGGGTKVEIK
notes: also called Clone VH4_H01; #44_VH4_H01
On to B2, for which, in assay [1], the “inhibition of monomeric tau uptake into human astrocytes” value stood at 67.5% and the “inhibition of monomeric tau uptake into human iPSC-derived neurons” value worked out at 89.2%. In assay [2], the “inhibition of aggregated tau uptake into human astrocytes” value came to 38.6% and the “inhibition of aggregated tau uptake into human iPSC-derived neurons” value turned out to be 61.1%. Also, in [5], the “Fold change (KD, to pVH/pVL)” value was 2.43; the Kd is 2.71 nM; the koff came out at 0.00805 s⁻¹; the kon turned out to be 2.97e+06 M⁻¹ s⁻¹. For the same molecule, in assay [6], the “Fold improvement (KD, to pVH/pVL)” value was 1.9; the Kd was 4.01 nM; the koff amounted to 0.00957 s⁻¹; the kon was 2.39e+06 M⁻¹ s⁻¹. The binding result with Bovine serum albumin [8] is given as “no binding (tested: 30 ng/ml (legend 1:100))”.

B3: #44_VH4VK4_H02/pVL (antibody, V domains shown)
VH: QVQLQESGPGLVKPSETLSLTCTVSGIDLSSYAMAWVRQAPGKGLEWIGCIDRRGGTFYASWVKGRFTISKDTSKTTVDLQMTSLTAEDTATYFCARDRGDFDVWGQGTLVTVSS
VL: DIQMTQSPSSLSASVGDRVTITCQASQSVYDNYLAWYQQKPGQPPKLLIHAASNLASGVPSRFSGSGSGTEFTLTISSLQPDDFATYYCLGEFSCTTTDCNVFGGGTKVEIK
notes: also called Clone VH4_H02; #44_VH4_H02
B3: in assay [1], the “inhibition of monomeric tau uptake into human astrocytes” value turned out to be 64.7% and the “inhibition of monomeric tau uptake into human iPSC-derived neurons” value turned out to be 84.1%. For the same molecule, in assay [2], the “inhibition of aggregated tau uptake into human astrocytes” value was 43.3% and the “inhibition of aggregated tau uptake into human iPSC-derived neurons” value was determined as 59.2%. In assay [5], the “Fold change (KD, to pVH/pVL)” value was 5.62; the dissociation constant Kd amounted to 1.17 nM; the off-rate constant (koff) came to 0.00324 s⁻¹; the on-rate (kon) is 2.78e+06 M⁻¹ s⁻¹. For the same molecule, in assay [6], the “Fold improvement (KD, to pVH/pVL)” value was found to be 5.1; the Kd amounted to 1.52 nM; the off-rate constant (koff) was 0.0037 s⁻¹; the kon turned out to be 2.43e+06 M⁻¹ s⁻¹. For the same molecule, the binding result in the assay with Bovine serum albumin [8] is recorded as “no binding (tested: 30 ng/ml (legend 1:100))”.

B4: Clone #66 (Clone 1) chimeric human IgG1 (antibody, V domains shown)
VH: QSVEESGGRLVTPGTPLTLTCTVSGIDLSSNAMIWVRQAPGKGLEYIGNIGTHGTTYYASWAKGRFTISKTSTTVDLKMTSPTTEDTATYFCSRGDIWGPGTLVTVSL
VL: AQVLTQTESPVSAPLRGTVTINCQASQSVDDNNNLAWYQQKPGQPPKLLIYEASTLASGVSSRFKGSGSGTQFTLTISDVQCDDAATYYCLGEFSCSSADCVVFGGGTEVVVKG
notes: rabbit VH and VK on human IgG1; also called #66 hIgG1
In the case of B4, in assay [9], the Kd came out at 2.39 nM, the koff was 0.00478 s⁻¹ and the kon was determined as 2.01e+06 M⁻¹ s⁻¹.

B5: #44 VH0VK0 chimeric human IgG1 (antibody, V domains shown)
VH: QSVEESGGRLVTPGTPLTLTCTVSGIDLSSYAMAWVRQAPGKGLEWIGCIDRRGGTFYASWVKGRFTISKTSTTVDLKMTSLTTEDTATYFCARDSGAFDPWGPGTLVTVSS
VL: QIVMTQTPSSVSAAVGGTVTIKCQASQSVYDNYLAWYQQKPGQPPKLLIHAASNLASRVPSRFKGSGSGTQFTLTISDVQCDDAATYYCLGEFSCTTTDCNVFGGGTEVVVK
notes: rabbit VH and VK on human IgG1; also called VH0Vκ0; Clone #44 hIgG1
B5: in assay [9], the Kd worked out at 4.68 nM, the koff turned out to be 0.00968 s⁻¹ and the kon came to 2.07e+06 M⁻¹ s⁻¹. Besides, in assay [3], the Kd was 3.83 nM, the “Relative KD (to VH0VK0)” value came to 1, the off-rate (koff) was 0.0126 s⁻¹ and the kon was 3.28e+06 M⁻¹ s⁻¹. In addition, in [4], the Kd came out at 3.25 nM, the “Relative KD (to VH0VK0)” value is 1, the koff was 0.0107 s⁻¹ and the kon was determined as 3.3e+06 M⁻¹ s⁻¹.
